Experimental data from article PMC9804225.

Legend:
[1] = target: recombinantly expressed GFP Nb; assay: BLI; Nbs immobilised by their C-terminal His-tag on Ni-NTA biosensor tips; untagged GFP as analyte at 1 nM to 100 nM
[2] = target: synthetic GFP Nb_(1–123)‐linker‐PA (5), folded; assay: as above

- Kd [1]: 1.12 nM
- Kd [2]: 1.11 nM
Substance: untagged GFP (from UniProt P42212 1-238) (natural protein)
